In patent publication US8461305B2, “L-fucose α1→6 specific lectin” (J-Oil Mills, Inc., priority 2008, dated 2013):

Experiments:
[1] = frontal affinity chromatography (FAC), association constant to PA sugar chains having other L-fucose; assay type: binding; settings: 25 degrees C.
Method in brief: (§1)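 Lectin coupled via primary amines to NHS-activated sepharose in a miniature column, run in TBS (pH 7.4) at 0.125 ml/min and 25 degrees C. PA sugar chains (3.75 nM or 7.5 nM) applied in excess, with elution monitored by fluorescence (ex 310/em 380 nm). Ka calculated from front-end delay (V−Vo) versus PA rhamnose and effective ligand amount (Bt).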

[2] = frontal affinity chromatography (FAC), association constant to PA sugar chains without L-fucose; assay type: binding; settings: 25 degrees C.
Method in brief: as §1

B1: Aleuria aurantia lectin (protein)
chain: PTEFLYTSKIAAISWAATGGRQQRVYFQDLNGKIREAQRGGDNPWTGGSSQNVIGEAKLFSPLAAVTWKSAQGIQIRVYCVNKDNILSEFVYDGSKWITGQLGSVGVKVGSNSKLAALQWGGSESAPPNIRVYYQKSNGSGSSIHEYVWSGKWTAGASFGSTVPGTGIGATAIGPGRLRIYYQATDNKIREHCWDSNSWYVGGFSASASAGVSIAAISWGSTPNIRVYWQKGREELYEAAYGGSWNTPGQIKDASRPTPSLPDTFIAANSSGNIDISVFFQASGVSLQQWQWISGKGWSIGAVVPTGTPAGW
association constant Ka ([1]; Sugar chain No. 419): <1000 M⁻¹ | association constant Ka ([1]; Sugar chain No. 420): <1000 M⁻¹ | association constant Ka ([1]; Sugar chain No. 718): 65000 M⁻¹ | association constant Ka ([1]; Sugar chain No. 719): <1000 M⁻¹ | association constant Ka ([1]; Sugar chain No. 720): <1000 M⁻¹ | association constant Ka ([1]; Sugar chain No. 721): <1000 M⁻¹ | association constant Ka ([1]; Sugar chain No. 722): <1000 M⁻¹ | association constant Ka ([1]; Sugar chain No. 723): 35000 M⁻¹ | association constant Ka ([1]; Sugar chain No. 726): <1000 M⁻¹ | association constant Ka ([1]; Sugar chain No. 727): 130000 M⁻¹ | association constant Ka ([1]; Sugar chain No. 728 (as listed in Table 5/12)): <1000 M⁻¹ | association constant Ka ([1]; Sugar chain No. 729): <1000 M⁻¹ | association constant Ka ([1]; Sugar chain No. 730): <1000 M⁻¹ | association constant Ka ([1]; Sugar chain No. 731): <1000 M⁻¹ | association constant Ka ([1]; Sugar chain No. 739): <1000 M⁻¹ | association constant Ka ([1]; Sugar chain No. 909): 310000 M⁻¹ | association constant Ka ([1]; Sugar chain No. 910): 90000 M⁻¹ | association constant Ka ([1]; Sugar chain No. 931): <1000 M⁻¹ | association constant Ka ([1]; Sugar chain No. 932): <1000 M⁻¹ | association constant Ka ([1]; Sugar chain No. 933): 210000 M⁻¹ | association constant Ka ([2]; Sugar chain No. 001): <1000 M⁻¹ | association constant Ka ([2]; Sugar chain No. 002): <1000 M⁻¹ | association constant Ka ([2]; Sugar chain No. 003): <1000 M⁻¹ | association constant Ka ([2]; Sugar chain No. 004): <1000 M⁻¹ | association constant Ka ([2]; Sugar chain No. 005): <1000 M⁻¹ | association constant Ka ([2]; Sugar chain No. 006): <1000 M⁻¹ | association constant Ka ([2]; Sugar chain No. 007): <1000 M⁻¹ | association constant Ka ([2]; Sugar chain No. 008): <1000 M⁻¹ | association constant Ka ([2]; Sugar chain No. 009): <1000 M⁻¹ | association constant Ka ([2]; Sugar chain No. 010): <1000 M⁻¹ | association constant Ka ([2]; Sugar chain No. 011): <1000 M⁻¹ | association constant Ka ([2]; Sugar chain No. 012): <1000 M⁻¹ | association constant Ka ([2]; Sugar chain No. 013): <1000 M⁻¹ | association constant Ka ([2]; Sugar chain No. 014): <1000 M⁻¹ | association constant Ka ([2]; Sugar chain No. 101): <1000 M⁻¹ | association constant Ka ([2]; Sugar chain No. 103): <1000 M⁻¹ | association constant Ka ([2]; Sugar chain No. 104): <1000 M⁻¹ | association constant Ka ([2]; Sugar chain No. 105): <1000 M⁻¹ | association constant Ka ([2]; Sugar chain No. 107): <1000 M⁻¹ | association constant Ka ([2]; Sugar chain No. 108): <1000 M⁻¹ | association constant Ka ([2]; Sugar chain No. 301): <1000 M⁻¹ | association constant Ka ([2]; Sugar chain No. 304): <1000 M⁻¹ | association constant Ka ([2]; Sugar chain No. 305): <1000 M⁻¹ | association constant Ka ([2]; Sugar chain No. 307): <1000 M⁻¹ | association constant Ka ([2]; Sugar chain No. 308): <1000 M⁻¹ | association constant Ka ([2]; Sugar chain No. 313): <1000 M⁻¹ | association constant Ka ([2]; Sugar chain No. 314): <1000 M⁻¹ | association constant Ka ([2]; Sugar chain No. 323): <1000 M⁻¹ | association constant Ka ([2]; Sugar chain No. 501): <1000 M⁻¹ | association constant Ka ([2]; Sugar chain No. 502): <1000 M⁻¹ | association constant Ka ([2]; Sugar chain No. 503): <1000 M⁻¹ | association constant Ka ([2]; Sugar chain No. 504): <1000 M⁻¹ | association constant Ka ([2]; Sugar chain No. 701): <1000 M⁻¹ | association constant Ka ([2]; Sugar chain No. 702): <1000 M⁻¹ | association constant Ka ([2]; Sugar chain No. 703): <1000 M⁻¹ | association constant Ka ([2]; Sugar chain No. 704): <1000 M⁻¹ | association constant Ka ([2]; Sugar chain No. 705): <1000 M⁻¹ | association constant Ka ([2]; Sugar chain No. 706): <1000 M⁻¹ | association constant Ka ([2]; Sugar chain No. 707): <1000 M⁻¹ | association constant Ka ([2]; Sugar chain No. 708): <1000 M⁻¹ | association constant Ka ([2]; Sugar chain No. 709): <1000 M⁻¹ | association constant Ka ([2]; Sugar chain No. 710): <1000 M⁻¹ | association constant Ka ([2]; Sugar chain No. 711): <1000 M⁻¹ | association constant Ka ([2]; Sugar chain No. 712): <1000 M⁻¹ | association constant Ka ([2]; Sugar chain No. 713): <1000 M⁻¹ | association constant Ka ([2]; Sugar chain No. 715): <1000 M⁻¹ | association constant Ka ([2]; Sugar chain No. 716): <1000 M⁻¹ | association constant Ka ([2]; Sugar chain No. 717): <1000 M⁻¹ | association constant Ka ([2]; Sugar chain No. 724): <1000 M⁻¹ | association constant Ka ([2]; Sugar chain No. 725): <1000 M⁻¹ | association constant Ka ([2]; Sugar chain No. 728 (as listed in Table 7)): <1000 M⁻¹ | association constant Ka ([2]; Sugar chain No. 732): <1000 M⁻¹ | association constant Ka ([2]; Sugar chain No. 733): <1000 M⁻¹ | association constant Ka ([2]; Sugar chain No. 734): <1000 M⁻¹ | association constant Ka ([2]; Sugar chain No. 735): <1000 M⁻¹ | association constant Ka ([2]; Sugar chain No. 736): <1000 M⁻¹ | association constant Ka ([2]; Sugar chain No. 737): <1000 M⁻¹ | association constant Ka ([2]; Sugar chain No. 738): <1000 M⁻¹ | association constant Ka ([2]; Sugar chain No. 901): <1000 M⁻¹ | association constant Ka ([2]; Sugar chain No. 902): <1000 M⁻¹ | association constant Ka ([2]; Sugar chain No. 903): <1000 M⁻¹ | association constant Ka ([2]; Sugar chain No. 905): <1000 M⁻¹ | association constant Ka ([2]; Sugar chain No. 906): <1000 M⁻¹ | association constant Ka ([2]; Sugar chain No. 907): <1000 M⁻¹
